Patent US20180355059A1 (PHARMAEXPLORER, published 2018)

Assays:
[1] = target: T1, recombinant human PCSK9 protein, His-tagged (Immunogen A, hPCSK9-His) (human, UniProt Q8NBP7 31-692, limits assumed, biotin-labelled in the ELISA and blocking assays (Biotin labeling kit)); assay: ELISA, biotin-hPCSK9-His on streptavidin plate; antibody 0.67 nM
T1 construct: also called human PCSK9-His; recombinant hPCSK9-His; not shown: His tag

[2] = target: T1, recombinant human PCSK9 protein, …; assay: ELISA, biotin-hPCSK9-His on streptavidin plate; antibody 6.67 nM
Method: (§1) The next day, the plates were washed twice with wash buffer [0.01% (v/v) Tween 20], then blocked with blocking buffer [0.01% (v/v) 0.1% BSA (w/w) Tween 20] at room temperature for 2 hours. […] Unbound PCSK9 proteins were removed by washing the plate three times with wash buffer [0.01% (v/v) Tween 20]. […] The plates were washed twice with wash buffer [0.01% (v/v) Tween 20], and 200 uL HRP-conjugated secondary antibody (Sigma) was added to each well and incubated for 2 hours at 37° C. After the plates were washed three times with wash buffer, 100 ul TMB substrate were added to each well and incubated for 30 minutes at room temperature. 100 ul stop solution (0.1N HCl) were added to each well to stop the reaction.

[3] = target: T2, recombinant cyno monkey PCSK9 protein (cyno monkey, UniProt A8T666 31-692 (rhesus entry), limits assumed, biotin-labelled in the ELISA (Biotin labeling kit)); assay: ELISA, biotin-cyno PCSK9 on streptavidin plate; antibody 0.67 nM
T2 construct: also called cyno PCSK9; Cyno Monkey PCSK9-His
T2 sequence (A8T666 31-692 limits assumed): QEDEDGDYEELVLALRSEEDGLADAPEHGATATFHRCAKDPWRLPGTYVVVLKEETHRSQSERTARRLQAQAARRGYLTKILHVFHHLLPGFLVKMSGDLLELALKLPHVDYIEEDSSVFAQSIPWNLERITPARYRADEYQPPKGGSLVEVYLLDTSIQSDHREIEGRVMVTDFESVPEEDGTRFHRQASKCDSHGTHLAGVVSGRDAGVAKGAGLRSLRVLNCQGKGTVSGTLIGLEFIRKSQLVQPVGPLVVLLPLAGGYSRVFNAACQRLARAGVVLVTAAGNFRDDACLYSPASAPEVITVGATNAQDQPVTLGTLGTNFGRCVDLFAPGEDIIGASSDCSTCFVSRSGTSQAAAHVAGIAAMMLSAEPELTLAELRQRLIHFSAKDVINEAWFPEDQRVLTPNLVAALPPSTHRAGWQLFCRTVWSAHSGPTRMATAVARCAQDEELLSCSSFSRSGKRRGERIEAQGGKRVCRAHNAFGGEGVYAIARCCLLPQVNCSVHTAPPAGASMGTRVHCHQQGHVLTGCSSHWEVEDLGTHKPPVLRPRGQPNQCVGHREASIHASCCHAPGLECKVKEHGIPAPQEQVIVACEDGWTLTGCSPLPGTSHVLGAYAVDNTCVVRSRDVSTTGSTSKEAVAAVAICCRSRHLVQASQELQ
Method: as §1

[4] = target: T2, recombinant cyno monkey PCSK9 protein; assay: ELISA, biotin-cyno PCSK9 on streptavidin plate; antibody 6.67 nM
Method: as §1

[5] = target: T1, recombinant human PCSK9 protein, …; assay: ELISA, biotin-hPCSK9-His on streptavidin plate; antibody 0.067 nM
Method: as §1

[6] = target: T1, recombinant human PCSK9 protein, …; assay: ELISA, biotin-hPCSK9-His on streptavidin plate; antibody 66.67 nM
Method: as §1

[7] = target: T2, recombinant cyno monkey PCSK9 protein; assay: ELISA, biotin-cyno PCSK9 on streptavidin plate; antibody 0.067 nM
Method: as §1

[8] = target: T2, recombinant cyno monkey PCSK9 protein; assay: ELISA, biotin-cyno PCSK9 on streptavidin plate; antibody 66.67 nM
Method: as §1

[9] = target: T1, recombinant human PCSK9 protein, …; assay: ELISA, biotin-hPCSK9-His on streptavidin plate; antibody 0.0067 nM
Method: as §1

[10] = target: T2, recombinant cyno monkey PCSK9 protein; assay: ELISA, biotin-cyno PCSK9 on streptavidin plate; antibody 0.0067 nM
Method: as §1

[11] = target: T1, recombinant human PCSK9 protein, …; assay: ELISA, biotin-hPCSK9-His on streptavidin plate; antibody 0.00067 nM
Method: as §1

[12] = target: T2, recombinant cyno monkey PCSK9 protein; assay: ELISA, biotin-cyno PCSK9 on streptavidin plate; antibody 0.00067 nM
Method: as §1

[13] = target: T1, recombinant human PCSK9 protein, …; assay: ELISA, biotin-hPCSK9-His on streptavidin plate; antibody 0.000067 nM
Method: as §1

[14] = target: T1, recombinant human PCSK9 protein, …; assay: ELISA, biotin-hPCSK9-His on streptavidin plate; antibody 0 nM (blank)
Method: as §1

[15] = target: T2, recombinant cyno monkey PCSK9 protein; assay: ELISA, biotin-cyno PCSK9 on streptavidin plate; antibody 0 nM (blank)
Method: as §1

[16] = target: T1, recombinant human PCSK9 protein, …; assay: blocking ELISA, biotin-hPCSK9-His on coated LDLR ECD-His; antibody 8 nM
Method: (§2) Purified LDLR^ECD-His was diluted with PBS to a final concentration of 1.0 ug/ml, and 100 uL of diluted LDLR^ECD-His were added to each well of 96-well plate that was then sealed with plastic film and incubated at 4° C. overnight. The plate was washed twice with wash buffer [PBS+0.01% (v/v) Tween 20] and incubated with blocking buffer [PBS+0.01% (v/v) BSA+1% Tween20 (w/w)] at room temperature for 2 hours. […] The plate was washed three times with wash buffer [0.01% (v/v) Tween 20]. 100 uL HRP-conjugated streptavidin (Sigma) were then added to each well and incubated at 37° C. for 1 hour. The plate was then washed three times with wash buffer, and 100 uL TMB substrate were added to each well. After 15 minutes of incubation at room temperature, the reaction was stopped by adding 50 uL stop solution (0.1N HCl).

[17] = target: T1, recombinant human PCSK9 protein, …; assay: blocking ELISA, biotin-hPCSK9-His on coated LDLR ECD-His; antibody 40 nM
Method: as §2

[18] = target: T1, recombinant human PCSK9 protein, …; assay: blocking ELISA, biotin-hPCSK9-His on coated LDLR ECD-His; antibody 1.6 nM
Method: as §2

[19] = target: T1, recombinant human PCSK9 protein, …; assay: blocking ELISA, biotin-hPCSK9-His on coated LDLR ECD-His; antibody 200 nM
Method: as §2

[20] = target: T1, recombinant human PCSK9 protein, …; assay: blocking ELISA, biotin-hPCSK9-His on coated LDLR ECD-His; antibody 0.01 nM
Method: as §2

[21] = target: T1, recombinant human PCSK9 protein, …; assay: blocking ELISA, biotin-hPCSK9-His on coated LDLR ECD-His; antibody 0.06 nM
Method: as §2

[22] = target: T1, recombinant human PCSK9 protein, …; assay: blocking ELISA, biotin-hPCSK9-His on coated LDLR ECD-His; antibody 0.32 nM
Method: as §2

- OD450 nm [1]: 2.73 OD450 nm
- OD450 nm [2]: 2.89 OD450 nm
- OD450 nm [3]: 2.26 OD450 nm
- OD450 nm [4]: 2.58 OD450 nm
- OD450 nm [5]: 1 OD450 nm
- OD450 nm [6]: 2.86 OD450 nm
- OD450 nm [7]: 0.77 OD450 nm
- OD450 nm [8]: 2.87 OD450 nm
- OD450 nm [9]: 0.3 OD450 nm
- OD450 nm [10]: 0.25 OD450 nm
- OD450 nm [11]: 0.18 OD450 nm
- OD450 nm [12]: 0.23 OD450 nm
- OD450 nm [13]: 0.17 OD450 nm
- OD450 nm [14]: 0.2 OD450 nm
- OD450 nm [15]: 0.25 OD450 nm
- OD450 nm (PCSK9 bound to LDLR) [16]: 0.53 OD450 nm
- OD450 nm (PCSK9 bound to LDLR) [17]: 0.45 OD450 nm
- OD450 nm (PCSK9 bound to LDLR) [18]: 0.97 OD450 nm
- OD450 nm (PCSK9 bound to LDLR) [19]: 0.63 OD450 nm
- OD450 nm (PCSK9 bound to LDLR) [20]: 1.19 OD450 nm
- OD450 nm (PCSK9 bound to LDLR) [21]: 1.25 OD450 nm
- OD450 nm (PCSK9 bound to LDLR) [22]: 1.16 OD450 nm
B1: 96F8C6, chimeric anti-PCSK9 mAb purified from hybridoma (antibody, V domains shown)
VH: EVQLVESGGGLVQPGGSLRLSCAASGITFSSYWMSWVRQAPGKGLEWVANIKQDGSEKYYVDSVKGRFTISRDIAKNSLYLQMNSLRAEDTAVYYCARDRGTYYYGSGSYNYYYYGMDVWGQGTTVTVSS
VL: not shown
notes: From Harbour H2L2 mice: human variable regions, rat constant regions
